These results are taken from the supplement of paper PMC9112550, “Optimization of the antimicrobial peptide Bac7 by deep mutational scanning” (BMC Biology, 2022).
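Further: peptides expressed intracellularly from a pBAD plasmid library in pooled LB shake-flask culture, induced with 0.3% L-arabinose, DNA abundance read by NGS, three biological replicates, DESeq2 with apeglm shrinkage.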

The data set concerns Escherichia coli TOP10. The data set is described as follows: shrunken log2 fold change of peptide-encoding DNA abundance (4.5 h post-induction vs induction); higher = less antimicrobial activity (less host growth inhibition). Conditions: time post-induction: 4.5 h; library: site-saturation at positions 5, 18, 19, 20.
Turning to RRIRRRPPRLPRPRPRPYQIPRP, the “shrunken log2 fold change” value is 0.022.

Turning to RRIRARPPRLPRPRPRPSMSPRP, the “shrunken log2 fold change” value is -0.105.

As to RRIRHRPPRLPRPRPRPWVHPRP, the “shrunken log2 fold change” value was -0.179.

For RRIRLRPPRLPRPRPRPLIPPRP, the “shrunken log2 fold change” value is -0.41.

For RRIRIRPPRLPRPRPRPEGGPRP, the “shrunken log2 fold change” value turned out to be 0.155.

On to RRIRPRPPRLPRPRPRPQMCPRP, for which the “shrunken log2 fold change” value is -0.101.

In the case of RRIRKRPPRLPRPRPRPKCGPRP, the “shrunken log2 fold change” value turned out to be 0.0305.

In the case of RRIRARPPRLPRPRPRPFISPRP, the “shrunken log2 fold change” value came out at 0.112.

RRIRLRPPRLPRPRPRPSLPPRP: the “shrunken log2 fold change” value was -0.0357.

As to RRIRYRPPRLPRPRPRPFVQPRP, the “shrunken log2 fold change” value was -0.0236.

As to RRIRLRPPRLPRPRPRPRCGPRP, the “shrunken log2 fold change” value stood at 0.0294.

In the case of RRIRSRPPRLPRPRPRPDHPPRP, the “shrunken log2 fold change” value was -0.0828.

Consider RRIRWRPPRLPRPRPRPALCPRP, for which the “shrunken log2 fold change” value was found to be 0.331.

As to RRIRGRPPRLPRPRPRPAFCPRP, the “shrunken log2 fold change” value stood at 0.731.

For the sequence RRIRNRPPRLPRPRPRPPCHPRP, the “shrunken log2 fold change” value was -0.386.

Take RRIRIRPPRLPRPRPRPRSGPRP: the “shrunken log2 fold change” value is 0.242.

RRIRLRPPRLPRPRPRPNIRPRP: the “shrunken log2 fold change” value is -0.585.

As for RRIRERPPRLPRPRPRPYWMPRP, the “shrunken log2 fold change” value was -0.438.

Regarding RRIRMRPPRLPRPRPRPNSTPRP, the “shrunken log2 fold change” value amounted to 0.0221.

With RRIRCRPPRLPRPRPRPHFYPRP, the “shrunken log2 fold change” value is -0.305.

For RRIRCRPPRLPRPRPRPVMWPRP, the “shrunken log2 fold change” value amounted to 0.131.

Regarding RRIRKRPPRLPRPRPRPYLLPRP, the “shrunken log2 fold change” value is -0.525.

RRIRQRPPRLPRPRPRPLMFPRP: the “shrunken log2 fold change” value is -0.137.

Consider RRIRPRPPRLPRPRPRPYIHPRP, for which the “shrunken log2 fold change” value is -0.946.

Consider RRIRCRPPRLPRPRPRPNQMPRP, for which the “shrunken log2 fold change” value was -0.447.

As for RRIRIRPPRLPRPRPRPWIFPRP, the “shrunken log2 fold change” value is -0.498.

Take RRIRSRPPRLPRPRPRPHFKPRP: the “shrunken log2 fold change” value was -0.383.

Take RRIRTRPPRLPRPRPRPWGFPRP: the “shrunken log2 fold change” value is 0.0102.

Regarding RRIRHRPPRLPRPRPRPMLIPRP, the “shrunken log2 fold change” value is -0.824.

Regarding RRIRLRPPRLPRPRPRPPVDPRP, the “shrunken log2 fold change” value was found to be 0.539.

Regarding RRIRFRPPRLPRPRPRPCDQPRP, the “shrunken log2 fold change” value is -0.0178.

For RRIRVRPPRLPRPRPRPFNKPRP, the “shrunken log2 fold change” value worked out at 0.791.

Regarding RRIRLRPPRLPRPRPRPEGKPRP, the “shrunken log2 fold change” value was -0.00133.

With RRIRDRPPRLPRPRPRPFPHPRP, the “shrunken log2 fold change” value was -0.303.

On to RRIRVRPPRLPRPRPRPMLWPRP, for which the “shrunken log2 fold change” value stood at 0.0613.

Turning to RRIRWRPPRLPRPRPRPLRDPRP, the “shrunken log2 fold change” value is 0.655.

Consider RRIRYRPPRLPRPRPRPVIRPRP, for which the “shrunken log2 fold change” value was -0.139.

As to RRIRTRPPRLPRPRPRPCFHPRP, the “shrunken log2 fold change” value was -0.638.

As for RRIRHRPPRLPRPRPRPKAFPRP, the “shrunken log2 fold change” value turned out to be 0.0173.

In the case of RRIRTRPPRLPRPRPRPLHQPRP, the “shrunken log2 fold change” value worked out at 0.0302.

Take RRIRARPPRLPRPRPRPQGMPRP: the “shrunken log2 fold change” value was 0.233.

With RRIRPRPPRLPRPRPRPIWNPRP, the “shrunken log2 fold change” value is -0.282.

For the sequence RRIRYRPPRLPRPRPRPLCLPRP, the “shrunken log2 fold change” value was -0.341.

In the case of RRIRYRPPRLPRPRPRPCGLPRP, the “shrunken log2 fold change” value was -0.107.

For the sequence RRIRPRPPRLPRPRPRPWTHPRP, the “shrunken log2 fold change” value was -0.0188.

Take RRIRDRPPRLPRPRPRPSRTPRP: the “shrunken log2 fold change” value turned out to be 0.208.

In the case of RRIRDRPPRLPRPRPRPKVIPRP, the “shrunken log2 fold change” value is -0.176.

As for RRIRYRPPRLPRPRPRPFLIPRP, the “shrunken log2 fold change” value was -1.15.

On to RRIRSRPPRLPRPRPRPPSAPRP, for which the “shrunken log2 fold change” value is 0.646.

In the case of RRIRFRPPRLPRPRPRPKPKPRP, the “shrunken log2 fold change” value is 0.848.

As to RRIRKRPPRLPRPRPRPLKTPRP, the “shrunken log2 fold change” value is -0.151.

As for RRIRDRPPRLPRPRPRPEMIPRP, the “shrunken log2 fold change” value worked out at 0.0934.

Take RRIRSRPPRLPRPRPRPGWNPRP: the “shrunken log2 fold change” value stood at 0.0897.

For the sequence RRIRQRPPRLPRPRPRPDELPRP, the “shrunken log2 fold change” value was -0.0583.

For RRIRKRPPRLPRPRPRPDHKPRP, the “shrunken log2 fold change” value was -0.0248.

Regarding RRIRTRPPRLPRPRPRPFVDPRP, the “shrunken log2 fold change” value was -0.0538.

As to RRIRGRPPRLPRPRPRPCLYPRP, the “shrunken log2 fold change” value was determined as 0.0217.

Regarding RRIRHRPPRLPRPRPRPWMFPRP, the “shrunken log2 fold change” value was -0.119.

As for RRIRDRPPRLPRPRPRPLAKPRP, the “shrunken log2 fold change” value was 0.96.

As for RRIRNRPPRLPRPRPRPAGEPRP, the “shrunken log2 fold change” value was 0.507.

Take RRIRFRPPRLPRPRPRPHPSPRP: the “shrunken log2 fold change” value was -0.107.

For RRIRLRPPRLPRPRPRPLQIPRP, the “shrunken log2 fold change” value is -0.092.
